# Test system: MS2 coat protein
# Experiment: apparent KD of MS2 coat protein; designed switch direction (-1 OFF switch, 1 ON switch): 1; higher = weaker reporter binding
# Outline: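 The apparent KD reported per design is the median over clusters of curve fits to normalised cluster fluorescence. The RNA switches were transcribed on Illumina chips by stalled E. coli RNA polymerase. SNAP-549-labelled MS2 coat protein was titrated from 0.7 or 1.5 nM, doubling up to 3 µM, in Tris-HCl pH 7.5 buffer containing KCl, MgCl2, BSA, DTT, tRNA and Tween-20, with no input, 200 uM small-molecule ligand, or an oligonucleotide input.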
# [1] = input ligand: microRNA oligo, concentration not stated
Sequence,apparent KD of MS2 coat protein (input ligand: FMN 200 uM),apparent KD of MS2 coat protein [1],apparent KD of MS2 coat protein (input ligand: none),"apparent KD of MS2 coat protein (Eterna round: R95, input ligand: FMN 200 uM)","apparent KD of MS2 coat protein (Eterna round: R95, input ligand: microRNA oligo, concentration not stated)","apparent KD of MS2 coat protein (Eterna round: R95, input ligand: none)"
"GGUCCAUCAUGAGGAUAUGGCACCUUAUUGGUGCCAGAAGGCAUGUCUAUUAGACAUGAGGAUCACCCAUGUAUAAAUUGGACC [Eli NG1ss - 91] (Eterna round: R96, puzzle: Same State NG 1)",108 nM,192 nM,1130 nM,–,–,–
"GGUCGGACCUACAUGAGGAUCACCCAUGUUCCGGAAACGGCAUAGGAUAUCUGUCCGAAAAGGUCAGAGAAGGGUGAACCGACC [Fiskers NG3ss - 74] (Eterna round: R96, puzzle: Same State NG 3)",145 nM,160 nM,162 nM,–,–,–
"GGUCGGACUCACAUGAGGAUCACCCAUGUUGCGGAAACGCGGCAGGAUAUCUGUCCGAAAAGGUCAGAGAAGGGUCAACCGACC [Fiskers NG3ss - 62] (Eterna round: R96, puzzle: Same State NG 3)",644 nM,141 nM,199 nM,–,–,–
GGUGAGAGAGUCAAGGAUAUUAAAGGAGAGACAUGAGGAUCACCCAUGUAAGAGAGAGAGGAGAGUGAGAAGGUGAAGAGAGUGG [Altered State 2-25 - Jieux - Same State 2] (puzzle: Same State 2),–,–,–,30.4 nM,25 nM,60.6 nM
"GGUGCCAAAUAAGCCUACAUGAGGAUCACCCAUGUAUGUAGGCAGGAUAUCGUUUGCAAAGCAAACGAGAAGGGCUGAGGCACC [Mat - Same State NG 3 - JL Mod - D53] (Eterna round: R96, puzzle: Same State NG 3)",26.1 nM,42.7 nM,81 nM,–,–,–
"GGUGCGAAAUAAGCCUACAUGAGGAUCACCCAUGUAUGUAGGCAGGAUAUCGUUUGCAAAGCAAACGAGAAGGGCUGACGCACC [Mat - Same State NG 3 - JL Mod - D50] (Eterna round: R96, puzzle: Same State NG 3)",31.1 nM,52.6 nM,94.5 nM,–,–,–
"GGUGCGAAUAAAGCCUACAUGAGGAUCACCCAUGUAUGUAGGCAGGAUAUCGUUUGCAAAGCAAACGAGAAGGGCUGUCGCACC [Mat - Same State NG 3 - JL Mod - D46] (Eterna round: R96, puzzle: Same State NG 3)",29.9 nM,55.2 nM,100 nM,–,–,–
"GGUGGGUUACUACCCACACAUGAGGAUCACCCAUGUAUUGGGAAGGAUAUGGUGCCUGUGUGGUACCAGAAGGUCCUGGAGGUG [SS-NG3-LRO20] (Eterna round: R96, puzzle: Same State NG 3)",1350 nM,237 nM,1590 nM,–,–,–
"GUACAGAUCACAGGAUAUCACGUCGAAUAGACGUGAGAAGGGUGAUCACACAUGAAUAUUAAUACAUGAGGAUCACCCAUGUAC [SSNG1/16-A1] (Eterna round: R96, puzzle: Same State NG 1)",71 nM,14.1 nM,20.4 nM,–,–,–
"GUACAGAUUAUAGGAUAUCACGUCGAAUAGACGUGAGAAGGAUAAUCCCACAUGAAUAUUAAUACAUGAGGAUCACCCAUGUAC [SSNG1/18-B1] (Eterna round: R96, puzzle: Same State NG 1)",16.8 nM,19.8 nM,20.4 nM,–,–,–
"GUACAUAUUAUAGGAUAUCACGUCGUUUAGACGUGAGAAGGAUAAUCCCACAUGAAUAUUAAUACAUGAGGAUCACCCAUGUAC [SSNG1/18-A3] (Eterna round: R96, puzzle: Same State NG 1)",64.2 nM,48 nM,63.9 nM,–,–,–
"GUACUCAUGUAAGGAUAUGCAGCCGUUUCGGCUGCAGAAGGUACUAUAAUACAUGAGGAUCACCCAUGUCUCUAUAAUUUAGUG [salish99_SSNG1_r04_901] (Eterna round: R96, puzzle: Same State NG 1)",70.6 nM,34.5 nM,49 nM,–,–,–
"GUAGAACAUGAGGAUCACCCAUGUGAAGACGCAUGAGGAUAUAUACGUAAAUAGCAUACGAUAGAAGGCAUGAUAA [JR_SS001_Sub1703] (Eterna round: R96, puzzle: Same State 1)",–,40.6 nM,–,–,–,–
"GUAGCAUACCGAGGAUAUUCAUAAACAUGAGGAUCACCCAUGUAGGCCAGCAUUAGCUGGCCUUGGGAGAAGGCGGAAUGCUAC [Xeonanis - 20 Mod51] (Eterna round: R96, puzzle: Same State NG 2)",17.4 nM,53.9 nM,77.4 nM,–,–,–
"GUAGCAUACCGAGGAUAUUCAUACAUGAGGAUCACCCAUGUUUAAUUAUAGGCCAAAAGGCCUUGGGAGAAGGCGGAAUGCUAC [Xeonanis - 20 Mod14] (Eterna round: R96, puzzle: Same State NG 2)",8.39 nM,10.1 nM,14.4 nM,–,–,–
"GUAGCAUACCGAGGAUAUUCAUACAUGAGGAUCACCCAUGUUUAGGCCAGCAUUAGCUGGCCUUGGGAGAAGGCGGAAUGCUAC [Xeonanis - 20 Mod54] (Eterna round: R96, puzzle: Same State NG 2)",17.7 nM,13.5 nM,22.6 nM,–,–,–
"GUAGCAUACCGAGGAUAUUCAUAUACAUGAGGAUCACCCAUGUUUAUAUAGGCCAAAAGGCCUUGGGAGAAGGCGGAAUGCUAC [Xeonanis - 20 Mod10] (Eterna round: R96, puzzle: Same State NG 2)",12.1 nM,7.88 nM,13 nM,–,–,–
"GUAGCAUACCGAGGAUAUUCAUAUUAAAACAUGAGGAUCACCCAUGUUUAGGCCAAAAGGCCUUGGGAGAAGGCGGAAUGCUAC [Xeonanis - 20 Mod4] (Eterna round: R96, puzzle: Same State NG 2)",19.2 nM,17.9 nM,25.1 nM,–,–,–
"GUAGCAUACCGAGGAUAUUCAUAUUAAAUACAUGAGGAUCACCCAUGUUAGGCCAAAAGGCCUUGGGAGAAGGCGGAAUGCUAC [Xeonanis - 20 Mod2] (Eterna round: R96, puzzle: Same State NG 2)",20.9 nM,33.6 nM,63.5 nM,–,–,–
"GUAGCAUACCGAGGAUAUUCAUAUUACAUGAGGAUCACCCAUGUAAGGCCACAUUAGUGGCCUUGGGAGAAGGCGGAAUGCUAC [Xeonanis - 20 Mod42] (Eterna round: R96, puzzle: Same State NG 2)",18.3 nM,30 nM,180 nM,–,–,–
"GUAGCAUACCGAGGAUAUUCAUAUUACAUGAGGAUCACCCAUGUGGCCAGCAUUAGCUGGCCUUGGGAGAAGGCGGAAUGCUAC [Xeonanis - 20 Mod49] (Eterna round: R96, puzzle: Same State NG 2)",110 nM,623 nM,1150 nM,–,–,–
"GUAGCAUACCGAGGAUAUUCAUUACAUGAGGAUCACCCAUGUUUUAUAGGUCGAUUACGACCUUGGGAGAAGGCGGAAUGCUAC [Xeonanis - 20 Mod30] (Eterna round: R96, puzzle: Same State NG 2)",10.5 nM,9.36 nM,15.6 nM,–,–,–
